Measured values published in PMC3936717 (Nucleic Acids Research, 2013).

Target: the molecule itself
Test: crystal structure

B1: P2 Cox protein of bacteriophage P2 (natural protein, UniProt P07695 1-91, looked up)
chain: MSKQVTLMTDAIPYQEFAKLIGKSTGAVRRMIDKGKLPVIDMTDPQSASGRAGEYWVYLPAWNNGLKLAYESRPKEIRDGWLMWLGLGEPR
  binding result: binds
